For test [1], the target named is T1, human MMP-14 (human, UniProt P50281 112-541, limits assumed). The test can be described thus: cell-based or functional assay.
The target of test [2] is T1, human MMP-14. Description: enzymatic assay, IgG, 2 nM MMP-14, peptide substrate at 10, 14, 18 µM; highest Ki measured. How it is done:
(§1) K_i studies were performed using an enzymatic assay at substrate [Mca-Pro-Leu-Ala-Cys(Mob)-Trp-Ala-Arg-Dap(Dnp)-NH_2] concentrations of 10 μM, 14 μM and 18 μM. […] The concentration of MMP-14 was 2 nM.

For test [3], the target named is T1, human MMP-14. Description: enzymatic inhibition assay, 2 nM MMP-14, 10 uM substrate Mca-Pro-Leu-Ala-Cys(Mob)-Trp-Ala-Arg-Dap(Dnp)-NH2; rate against [IgG] 0-50 nM. As to the method:
as §1

Test [4] concerns the target T1, human MMP-14. The test can be described thus: enzymatic inhibition assay, 2 nM MMP-14, 18 uM substrate Mca-Pro-Leu-Ala-Cys(Mob)-Trp-Ala-Arg-Dap(Dnp)-NH2; rate against [IgG] 0-50 nM. As to the method: as §1
Test [5] deals with T1, human MMP-14. The test can be described thus: enzymatic inhibition assay, 2 nM MMP-14, 14 uM substrate Mca-Pro-Leu-Ala-Cys(Mob)-Trp-Ala-Arg-Dap(Dnp)-NH2; rate against [IgG] 0-50 nM. How it is done:
as §1

Test [6] has as its target T1, human MMP-14. The test can be described thus: enzymatic inhibition assay against 2 pM hMMP-14; rate (dF/min) against [I] 0-100 nM; value taken from the line under the panel marked Parental, not from its inset table.
The target of test [7] is mouse MMP-14 in arthritic knee joints of C57Bl6 mice (mouse, UniProt P53690 112-582). Description: immunohistochemistry of mouse joints, acute SCW-induced arthritis.
In test [8] the target is T1, human MMP-14. Description: enzymatic inhibition assay against 2 pM hMMP-14; rate (dF/min) against [I] 0-100 nM.
In test [9] the target is T1, human MMP-14. The test can be described thus: enzymatic inhibition assay against 2 pM hMMP-14; rate (dF/min) against [I] 0-50 nM.

Consider six molecules from US7745587 (DYAX, dated 2010).

B1: M0043-G02 IgG (antibody, V domains shown)
VH: EVQLLESGGGLVQPGGSLRLSCAASGFTFSWYPMFWVRQAPGKGLEWVSGIYSSGGPTDYADSVKGRFTISRDNSKNTLYLQMNSLRAEDTAVYYCAKDTLGRYYDFWSGYSYGMDVWGQGTTVTVSS
VL: DIQMTQSPGTLSLSPGERATLSCRASQSVSSSYLAWYQQKPGQAPRLLIYGASSRATGIPDRFSGSGSGTDFTLTISRLEPEDFAVYYCQSGVTFGGGTKVEIK
notes: IgG of the Fab
The Ki is the dissociation constant of the complex between target and ligand, obtained from inhibition or displacement. Low readings indicate tighter binding, high ones weaker binding. Take B1: the “IC50 of MMP-14 inhibition (MMP-14 at 2 pM), IgG” value (“IC50 of MMP-14 inhibition” below) in test [1] amounted to 0.3 nM. Besides, the Ki in test [2] stood at 1.2 nM; in [3] it was 0.7 nM; in test [4], 1.1 nM.

B2: M0033-H07 IgG (antibody, V domains shown)
VH: EVQLLESGGGLVQPGGSLRLSCAASGFTFSVYGMVWVRQAPGKGLEWVSVISSSGGSTWYADSVKGRFTISRDNSKNTLYLQMNSLRAEDTALYYCARPFSRRYGVFDYWGQGTLVTVSS
VL: DIQMTQSPSSLSASVGDRVTITCRASQGIRNFLAWYQQKPGKVPKLLVFGASALQSGVPSRFSGSGSGTDFTLTISGLQPEDVATYYCQKYNGVPLTFGGGTKVEIK
notes: IgG of the Fab
The term IC50 denotes the midpoint of a concentration-inhibition curve. Regarding B2, the “IC50 of MMP-14 inhibition” value in test [1] is 5.1 nM. Also, the figures for the Ki in [2], in test [3] and in test [5] were 4 nM, 3.3 nM and 2.7 nM, respectively. The IC50 in [6] turned out to be 12.2 nM.

B3: M0037-D01 IgG (antibody, V domains shown)
VH: EVQLLESGGGLVQPGGSLRLSCAASGFTFSMYMMIWVRQAPGKGLEWVSSIYPSGGNTMYADSVKGRFTISRDNSKNTLYLQMNSLRAEDTAVYYCATGVLRYFDWDAGSGMDVWGQGTTVTVSS
VL: DIQMTQSPSSLSASVGDRVTITCRASQGIRNDLGWYQQKPGKAPKRLIYVASSLQSGVPSRFSGSGSGTEFTLTISSLQPEDFATYYCLQHNSYPWTFGQGTKVEIK
notes: IgG of the Fab
Take B3: the “IC50 of MMP-14 inhibition” value in test [1] was 1.7 nM. Besides, the Ki is 2.9 nM in test [2], 2 nM in test [4] and 1.7 nM in test [5].

B4: M0038-F01 IgG (antibody, V domains shown)
VH: EVQLLESGGGLVQPGGSLRLSCAASGFTFSLYSMNWVRQAPGKGLEWVSSIYSSGGSTLYADSVKGRFTISRDNSKNTLYLQMNSLRAEDTAVYYCARGRAFDIWGQGTMVTVSS
VL: DIQMTQSPSSLSAFVGDKVTITCRASQSVGTYLNWYQQKAGKAPELLIYATSNLRSGVPSRFSGSGSGTDFTLTINTLQPEDFATYYCQQSYSIPRFTFGPGTKVDIK
notes: IgG of the Fab
On to B4, for which the “IC50 of MMP-14 inhibition” value in test [1] was 2 nM. For the same molecule, the binding result in test [7] was “binds”. The same molecule gave an IC50 in [8] of 8.3 nM. The Ki in test [2] is 1.2 nM; in test [3], 0.6 nM; in test [5], 0.9 nM.

B5: M0038-F01 germline (antibody, human IgG1, kappa, V domains shown)
VH: EVQLLESGGGLVQPGGSLRLSCAASGFTFSLYSMNWVRQAPGKGLEWVSSIYSSGGSTLYADSVKGRFTISRDNSKNTLYLQMNSLRAEDTAVYYCARGRAFDIWGQGTMVTVSS
VL: DIQMTQSPSSLSASVGDRVTITCRASQSVGTYLNWYQQKPGKAPKLLIYATSNLRSGVPSRFSGSGSGTDFTLTISSLQPEDFATYYCQQSYSIPRFTFGPGTKVDIKR
notes: Full chains; the ranges 20-464 and 20-234 come from claims 16, 18 and 20
In test [9], B5 registered an IC50 of 5.13 nM.

B6: M0037-C09 IgG (antibody, V domains shown)
VH: EVQLLESGGGLVQPGGSLRLSCAASGFTFSHYEMFWVRQAPGKGLEWVSSISPSGGQTHYADSVKGRFTISRDNSKNTLYLQMNSLRAEDTAVYYCATDRTYYDFWSGYGPLWYWGQGTLVTVSS
VL: DIQMTQSPLSLPVTLGESASVSCRSSQSLLHENGHNYLDWYLQKPGQSPQLLIYLGSNRASGVPDRFSGSGSGTDFTLKISRVEAEDVGVYYCMQSLKTPPTFGPGTKVEIK
notes: IgG of the Fab; also called M037-C09
As to B6, the “IC50 of MMP-14 inhibition” value in test [1] is 4.2 nM. Also, the Ki in [2] came out at 8.6 nM; in test [3], 7.2 nM; in [5] it was 6.3 nM.
